The target in assay [1] is cynomologus monkey ApoC3 (cynoApoC3), native protein (Macaca fascicularis (cynomologus monkey), UniProt P18659 21-99). Put plainly: SPR (Biacore 3000), antibody IgG1 amine-coupled to a CM5 chip, native ApoC3 injected, HBS-EP pH 7.4. Here is the method:
The SPR experiments were carried out using a Biacore 3000 instrument (GE Healthcare). Flow cells of CM5 sensor chips were coupled with the generated IgG formatted antibodies of 14C7, 5A7, 5E5 and 6A6 (˜2000 RU) using the amine coupling chemistry. The coupling was performed using the adaptive immobilization Biacore protocol aiming 2000 RU as coating density, using 10 μg/ml antibody solutions in 10 mM sodium acetate buffer at pH 5.0. For all experiments the HBS-EP buffer at pH 7.4 was used as running and dilution buffer. 60 μl of human native ApoC3 or cynomologus monkey native ApoC3 protein preparations in the concentration range of 10 to 200 μg/ml were injected over all flow channels, followed by an off-rate wash at pH7.4 for 5 min. All injections were performed at a constant flow rate of 30 μl/min at 25° C. After the dissociation, the flow cell surfaces were regenerated by injecting 10 μl of 10 mM NaOH/1 M NaCl and 10 μl of 10 mM glycine at pH1.5. The resulting sensorgrams after blank channel subtraction were used to confirm cross-species reactivity and to evaluate affinity.
Background: SPR reads the build-up and loss of mass on a sensor chip optically.

Assay [2] concerns the target T1, human ApoC3 (huApoC3), native protein purified from human serum (human, UniProt P02656 21-99).
T1 construct: Athens Research and Technology; randomly biotinylated in some assays; also called Apolipoprotein C3
Put plainly: SPR Biacore, huApoC3 on chip, scFv-Fc as analyte. Here is the method:
This example describes characterization of anti-ApoC3 antibodies regarding their affinity to ApoC3 under neutral conditions using an SPR-based assay using a Biacore 3000 instrument (Biacore AB). Native huApoC3 protein was immobilized on a CM5 chip. The immobilization was performed in accordance with the method provided by Biacore using the NHS/EDC kit (Biacore AB): after activation of the chip, a solution of 60 μg/ml of human ApoC3 in 10 mM acetate buffer with pH of 4.5 was prepared and injected until the surface density reached approximately 1000 RU. Capturing of the human ApoC3 on the streptavidin coated chip (SA) was performed at pH 7.4 in accordance with a method provided by Biacore via injection of 20 μl 10 μg/ml biotinylated human ApoC3 thereby reaching the surface density of approximately 500 RU. […] After the dissociation, the flow cell surfaces were regenerated by injecting 10 μl of 10 mM […]/1 M NaCl and 10 μl of 10 mM glycine at pH1.5. The resulting sensorgrams were analyzed using the BIAevaluation 4.1 software using Langmuir 1:1 binding model to derive binding kinetics. Data was zero adjusted and the reference cell sensorgrams were subtracted.
A number of scFv-Fc antibodies were examined in this assay. The association rate (ka), dissociation rate (kd), analyte binding capacity (Rmax), equilibrium association constant (KA) and equilibrium dissociation constant (KD) of these antibodies are shown in Table 5.

Assay [3] concerns the target T1, human ApoC3 (huApoC3), native protein …. Put plainly: cell-based or functional assay.
Assay [4] shares this target. Put plainly: ELISA, biotinylated huApoC3 captured on neutravidin, scFv periplasmic extract. Here is the method:
The antibody clones selected from the scFv phage display library constructed in Example 1 were analyzed by a ELISA assay with biotinylated ApoC3 captured by […] which was coated on plates. Neutravidin (Fisher Scientific LDAcat#: W9995L) diluted in PBS (pH 7.4) at a concentration of 2-5 μg/ml (100 μl/well) was incubated in Microtiter Immunoassay Maxisorp 96-well plates (NUNC cat#:1456537 or similar) at 4° C. overnight. The coated plates were washed three times with 250 μl/well PBS-T to remove the excess of the unbound neutravidin. After washing, 250 μl 1% (m/v) of casein solution prepared in PBS was added to each coated well for blocking, and the plates were incubated for 1 to 2 hours at room temperature on a plate shaker (TitraMax 1000, Heidolph or similar). After blocking, the plates were washed three times to remove the excess of the blocking solution with 250 μl/well PBS-T. Biotin groups were introduced at random sites of human native ApoC3 protein (Athens Research and Technology). […] The absorbance of the end-product is measured at 450 nm using a Microplate spectrophotometer.

Assay [5] shares this target. Put plainly: SPR Biacore, huApoC3 on chip, IgG1 as analyte.

Usually Kd stands for the constant that tells how readily two partners part at equilibrium. As usually defined, the koff is the rate constant with which the complex falls apart. In general, kon refers to the second-order rate constant of association.

T1 sequence (P02656 21-99): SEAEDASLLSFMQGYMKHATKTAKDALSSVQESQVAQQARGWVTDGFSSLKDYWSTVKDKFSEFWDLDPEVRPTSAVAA
Chain of cynomologus monkey ApoC3 (cynoApoC3), native protein (P18659 21-99 limits assumed): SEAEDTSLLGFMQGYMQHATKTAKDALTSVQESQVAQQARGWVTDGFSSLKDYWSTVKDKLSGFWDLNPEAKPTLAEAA

B1: 5A7 IgG1 (antibody, V domains shown)
VH: EVQVQESGPGLVKPSQTLSLTCTVSGASITNRRYAWTWIRQPPGKGLEWMGVIVYDGNTHVSPSLRSRTSISRDTSKNQFSLQLSSLTPEDTAVYYCARVLLLRDPLSLDYWGQGTQVTVSS
VL: SSALTQPPSMSGTLGKTLTISCAGTSSDIGAYNFVSWYQQLPGTAPKLLIYDIDKRASGIPDRFSGSKSGNTASLSISGLQSEDEADYYCAAYGSRDNVVFGGGTHLTVL
notes: IgG1 format
As to B1, the binding result in assay [1] is “binds”.

B2: 5A4 scFv-Fc (Fc fusion)
VH: QLQLVESGGGLVQPGGSLRLSCVASGFAFSHYTMYWVRQAPVRGLERVSAISGGGDRTIYTDSVKGRFTISRDNAANALYLQMNSLQPEDTAVYYCVAQGYEYWGQGTRVTVSS
VL: ATMLTQSPGSLSVVPGESASISCKAIQSLVHTDGKTYLYWFLQKPGQSPQRLIYQVSNRGSGVPDRFTGSGSGTDFTLKISGVKAEDAGVYYCAQGTYSSKTFGQGTKLEIK
notes: scFv-Fc format
In assay [2], B2 returned a Ka of 3.02e+09 M⁻¹, a Kd of 0.331 nM, a koff of 0.000351 s⁻¹ and a kon of 1.06e+06 M⁻¹ s⁻¹. For the same molecule, the “attenuation of the ability of ApoC3 to inhibit VLDL uptake by HepG2 cells” value in assay [3] was approximately 100%.

B3: 12G8 scFv (scFv, V domains shown)
VH: QLQLVESGGGLVQPGGSLRLSCAASGFTFDDYAMSWVRQAPGKGLEWVSAIRWNGDTYYAESMKGRFDMSRDNAKNTLYLQMNSLKSEDTAVYYCAKHRPGGALDTWGQGTLVTVSS
VL: QAVLTQPSAVSVSLGQTARITCQGGNFGNFYASWYQQKPGQAPVLVIYKDSERPSGIPERFSGSSSGDTATLTISGAQAEDEADYYCQSGSSSDNVVFGGGTHLTVL
notes: scFv (crude periplasmic extract) with C-terminal c-myc tag
With B3, the binding result in assay [4] was “binds”.

B4: 5A11 scFv-Fc (Fc fusion)
VH: QVQVQESGPGLVKPSQTLSLTCTVSGVSITTRYYAWSWIRQPPGKGLEWMGVIAYDGSTYYSPSLKSRTSISRDTSKNQFSLQLTSVTPEDTAVYYCARVRLIEAPYEYDYWGQGTQVTVSS
VL: QAVVTQEPSLSVSPGGTVTLTCGLSSGSVTTRSYPGWFQQTPGQAPRSLIHSTSSRHSGIPTRFSGSISGNKAALTITGAQPEDEADYYCALDIGSYIVFGGGTHLTVL
notes: scFv-Fc format
Regarding B4, in assay [2], the Ka turned out to be 2.15e+09 M⁻¹, the dissociation constant Kd came out at 0.465 nM, the koff amounted to 0.000668 s⁻¹ and the kon was 1.44e+06 M⁻¹ s⁻¹. Further, in assay [3], the “attenuation of the ability of ApoC3 to inhibit VLDL uptake by HepG2 cells” value is approximately 55%.

B5: 12D7 scFv (scFv, V domains shown)
VH: ELQLVESGGDLVQPGGSLRLSCAASGFTFDDYAMSWVRQAPGKGLEWVSAITSNGKRTDYAESMKGRFTISRDNSKNTLYLEMNSLKSEDTAVYYCTKGPPHYIPIPSMTPRDSWGQGTQVTVSS
VL: SSALTQPSAVSVSLGQTARITCQGGTLGRYYGSWYQQKPAQAPVLLIYGDNSRPSGIPERFSGSKSGDTATLTISGTQAEDEADYYCESFDFSGNAAVFGGGTHLTVL
notes: as for B3
Turning to B5, the binding result in assay [4] is on record as “binds”.

B6: 10B6 scFv-Fc (Fc fusion)
VH: EVQLVESGGGLVQPGGSLRLSCAASGFTFSSYAMRWVRQAPGKGLEWISSINIDGGSTRYTDSVQGRFTVSRDNAKNTLYLQMNNLKPEDTGIYYCTIQGYIYWGQGTQVTVSS
VL: ATMLTQSPGSLSIVPGESASISCKASQSLVHSNGVIYFYWLLQKPGQSPQRLIYQVSNRDSGVPDRFTGSGSGTDFTLKISGVKAEDAGVYYCAQGTYYPHSFGSGTRLQIK
notes: scFv-Fc format
Take B6: in assay [2], the Ka came out at 2.58e+09 M⁻¹, the Kd worked out at 0.388 nM, the koff is 6.64e-05 s⁻¹ and the kon was 171000 M⁻¹ s⁻¹. The “attenuation of the ability of ApoC3 to inhibit VLDL uptake by HepG2 cells” value in assay [3] was approximately 70%.

B7: 14C7 IgG1 (antibody, V domains shown)
VH: QVQVQESGPGLVKPSQTLSLTCTVSGGSITTNSYYWSWIRQPPGKGLEWMGAIDYSGDTYYSPSLKSRTSISRDTSKNQFTLQLTSVTPEDTAVYYCVSRIPTGEYWGQGTQVTVSS
VL: QTVVTQEPSLSVSPGGTVTLTCGLNSGSVTSSNYPDWYQQTPGQAPRLLIYNTNSRHSGVPSRFSGSISGNKAALTITGAQPEDEADYYCALYMGSDSVVFGGGTHLTVL
notes: IgG1 format
In assay [5], B7 yielded a Ka of 1.46e+09 M⁻¹, a Kd of 0.684 nM, a koff of 5.61e-05 s⁻¹ and an association rate constant (kon) of 82000 M⁻¹ s⁻¹. Moreover, in assay [1], the binding result was “binds”. The “EC50, attenuation of ApoC3-mediated LPL inhibition (NEFA production)” value in assay [3] was approximately 2000 nM.

B8: 5E5 scFv-Fc (Fc fusion)
VH: QLQLVESGGGLVQPGGSLRLSCAASGFTFGTYSMRWVRQVPRKALEWVSSISTDGGGTAYRDSVKGRFTISRDNAKNTLYLQMNNLKPEDTAIYYCVIAGYSDWGQGTQVTVSS
VL: ATMLTQSPGSLSVVPGESASISCKTSQGLVHSDGKTYFYWFLQKPGQSPQQLIYQVSNRASGVPDRFTGSGSGTDFTLKISGVKAEDAGVYYCAQGTYYPHTFGSGTRLEIK
notes: scFv-Fc format
In the case of B8, in assay [2], the Ka is 5.94e+08 M⁻¹, binding was put at a Kd of 1.68 nM, the koff turned out to be 0.000437 s⁻¹ and the kon worked out at 260000 M⁻¹ s⁻¹. Besides, the “attenuation of the ability of ApoC3 to inhibit VLDL uptake by HepG2 cells” value in assay [3] was approximately 100%.

B9: 6A6 IgG1 (antibody, V domains shown)
VH: EVQLVESGGGLVQPGGSLRLSCAASGFTFSSYAGRWVRQVPGKGLEWVSSINAGGGSTSYADSVKGRFTISRDNAKNTLYLQMNSLKPEDTAKYYCTQNSYRYWGQGTRVAVSS
VL: DVVLTQTPGSLSVVPGESASISCKASQSLIHTDGKTYLYWLLQKPGQRPQLLIYQVSSHESGVPDRFTGSGSGTDFTLKISGVKAEDAGVYYCAQATYNPRTFGQGTKLEIK
notes: IgG1 format
Turning to B9, the binding result in assay [1] was “binds”. Further, the “EC50, attenuation of ApoC3-mediated LPL inhibition (NEFA production)” value in assay [3] is more than 5000 nM.

B10: 6A6 scFv-Fc (Fc fusion)
VH: B9 VH
VL: B9 VL
notes: scFv-Fc format
In assay [2], B10 gave a Ka of 6.41e+09 M⁻¹, a Kd of 0.156 nM, a koff of 0.000186 s⁻¹ and a kon of 1.19e+06 M⁻¹ s⁻¹. The “attenuation of the ability of ApoC3 to inhibit VLDL uptake by HepG2 cells” value in assay [3] is approximately 75%.

For the origin of these results see patent US20190241648A1 (STATEN BIOTECHNOLOGY B V, published 2019).
